Reference: the nanobody polyreactivity screen of Harvey et al. (2022)

Test: yeast display, Sf9 membrane polyspecificity reagent, FACS + sequencing; frameworks hold sequencing errors
Summary of the method: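 Genes from sorted yeast were amplified by colony PCR, read by MiSeq 2 × 250 sequencing and filtered on CDR length. These cells carried a synthetic nanobody library in Saccharomyces cerevisiae BJ5465 and were sorted by FACS into low and high (top ~1%) gates on anti-HA and streptavidin fluorescence. Polyreactivity is labelled according to the gate of origin.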

Row | Sequence | polyreactivity (PSR sort gate)
1 | QVQLQESGGGLVQAGGSLRLSCEASGSIYYPRTMGRSRQAPGKELEFVAGSGVGGTTYYADSVKGRFTISRDNAKNTVYLQMNSLIPEDDAVYYCAVAAYYDKYYVYWGQGTQVTVSC | low polyreactivity
2 | QVQLQESGGGLVQAGGSLRLSSAASGSIFKVVDMGLYRQAPAKEREFVATIGEGGNTYYADSVKGRFTMSRDNAKNTVYLQKNSLKPEDTALYFYAVVLGTSYRYTYWGQGTQVTVSS | low polyreactivity
3 | QVQLQESGGGLVQAGGSLRLTCAASGSISYPRTMGWYRQAPGKEREFVAGIGVGGTTYYADSVKGRYTISRDNAKNTVYLQMNSLKPEHAAVDYCAVAAYYDKYYVYWGQGTQVTVSC | low polyreactivity
4 | QVQLQESGGGLVQAGGSLRMICAASGYISACRQMGWYRKAPGKEREFVATINGGATTNYADSVKGRFTISRDNAKNSVYLQMNSLKPEDTAVYYCAAVIWYVQDYTYWGQGAQVTVSS | high polyreactivity
5 | QVQLQESGGGLVQAGGSLRMSCAASGNIFDADIMGWSRQAPGKERELVASNTDGRRTNYADSVKGRYTISRDSEKNTVYLQMNSLKAEDTAEYYCAAIAYPVVPTSFDYDCDYFHWGQGTQVTVSS | high polyreactivity
6 | QVQLQESGGGLVQAGGSLRMSCAASGTISPLPAMGWYRQAPGKDRDFVAGIDTGAITNYADSVKGRFTISRDNAKNTVYLQMNSLKPEDTAVYYCAVFPAAYDYYERYYTYWGQGTQVTVSS | low polyreactivity
7 | QVQLQESGGGLVQAGGSLRMSCSASGNIFDADIMGWYRQAPGKERELVASITDGRRTNYADSVKGRYTISRDSEKNTVYLQMNSLKPEDTAVYYCAAIAYPVVPTYFDYDSDYFHWGQGTQVTVSS | high polyreactivity
8 | QVQLQESGGGLVQAGGSLRQSYAASGYIFPSLAMGWYRQAPGKEREFVAAIGRGSTNNYADSVQGRFTISRDNAKNTAYQQMNSLKPEDTAVYYCAAAASPLTRHLYWGQGTQVTVSS | low polyreactivity
9 | QVQLQESGGGLVQAGGSPRLSCAASDNIFPDSLMCWYRQAPGKERELVATIGFGATTNYEDSVKGRFTISRDNAKNTVYLQMNSLNPEDTALYYCAAVPLNYEYFCYWGQGTQVTVSS | low polyreactivity
10 | QVQLQESGGGLVQAGGSPRLSCAASDNIFPDSVMCWYRQAPGKERELVATIGFGATTNYADSVKGRFTISRDNAKNTVYLQMNSLKPEDTAVYYCAAVPLNYEYFCYWGQGTQVTVSS | low polyreactivity
11 | QVQLQESGGGLVQAGGSQRLSCAASGSISILQSMRWYRQAPGKERELVAGINWGATTYYADSVKGRLTSCRDYAKNTVYLEMNSLNPEDTAVYYCAVPTYYTYPLLYWGQGTQVTVSS | low polyreactivity
12 | QVQLQESGGGLVQAGGSQRLSCAASGYIFYFQYMGWYRQAPGKEREFVAAISDGANTNYADSVKGRFTISRDNAKNTEYLQMNSLKPEDTAVYYCAAGLSTGTIAYGYNYWRQGTQVTVSS | low polyreactivity
13 | QVQLQESGGGLVQAGGTITLGYDMGWYRQAPGKEREFVAGIDTGAITYYADSVKGRFTNSRDNAKNTVYLQMNSLKPEDTAVYYCAAIQTHTYAHSYWGQGTQVTVSS | high polyreactivity
14 | QVQLQESGGGLVQAGGTLRLSCAASGSFSADEDMGWYRQSQGKEREFVAGISVGGNTNYADSVKGRFTISRENAKKTVYLKINCLKPEDTAVYYCRVRLRTSYLLDYWGQGTQVTVSS | high polyreactivity
15 | QVQLQESGGGLVQAGGTLRLSCAASGTISFTRDMGWYRQAPGKEREFVASIDRGASTYYADSVKGRFTISRDNAKNTVYLQMNSLKPEDNAVYYRAVIAPFYSSFAYWGQGTQVTVSS | high polyreactivity
16 | QVQLQESGGGLVQAGVSLRLSGAASGYISTFSSEMGWYRQAPVKERELVASIAPGCTTSYADSVKGRFTISRDNAKNTVYLQMNSLKPEDTAVYYCAVDYTVPASFGYWGQGTQVTVSS | high polyreactivity
17 | QVQLQESGGGLVQARGSLRLSCAASGSISRYYDMGWYRQAPCKESEFVAGISGGAITYYADSVKGRFTISRDNAKNTVYLQMNSLKPEDTAVYYCAADTGVYKYHSYWGQVTQVTVSS | low polyreactivity
18 | QVQLQESGGGLVQASGSIFHEPNMGWYRQAPGKERELVAGISSGANTYYADSVKGRFTISRDNAKNTVYLQMNSVKPEDTAVYHCAVVVHLYTDLRNWGQDTQVTVSS | high polyreactivity
